Test [1] has as its target T1, human CLDN6 fused to GFP, expressed on engineered HEK293T cells (HEK293T-CLDN6-mGFP) (human, UniProt P56747 1-220).
T1 construct: It calls residues 1-21 a signal peptide; also called Claudin-6; HEK293T-CLDN6-mGFP Artificial CLDN6+; not shown: mGFP tag
T1 sequence: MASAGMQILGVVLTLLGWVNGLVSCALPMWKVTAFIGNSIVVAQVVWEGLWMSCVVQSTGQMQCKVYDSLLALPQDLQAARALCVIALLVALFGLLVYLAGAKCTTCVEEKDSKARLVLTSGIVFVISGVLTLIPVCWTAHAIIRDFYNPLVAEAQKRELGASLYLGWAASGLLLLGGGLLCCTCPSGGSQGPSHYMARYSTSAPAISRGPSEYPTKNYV
Nature of the test: FACS, AF647-labelled mAb, HEK293T-CLDN6-mGFP cells. The method, then:
(§1) Antibodies were purified and cell surface binding of the antibodies to CLDN6 and the antibody IC₅₀ were determined by FACS in which CLDN6 antibodies were directly conjugated with Alexa Fluor® 647 NHS Ester (Succinimidyl Ester), Cat #A20106 (ThermoFisher Scientific) following the manufacturer's protocol. CLDN6 antibodies were tested from 0.32 nM to 1000 nM (serial dilution 1:5, 6 points) in a 50 μl volume with 150,000 cells system.
(§2) CLDN6-expressing cells were used in FACS assays to determine the CLDN6 antibody's ability to bind to CLDN6 on the surface of cells and to cross-react with other CLDN family members. HEK293 T cells engineered to express human CLDN6 fused to GFP, mouse CLDN6 fused to GFP, CLDN9-GFP, CLDN4-GFP, or CLDN3-GFP, or GFP alone (without CLDN6) were used as artificial models of CLDN6 expression. ARK2, OVCA429, LS513 and MCF7 cells were used as endogenous models of CLDN6 expression, as well as models for CLDN3/4 expression.
(§3) For each type of cell tested and for each mAb, cells were detached from the surface of the culture flasks by EDTA (instead of trypsin) in order to protect the cell surface proteins. The detached cells were then incubated with Alexa Fluor®-labeled CLDN6 mAbs for 30 min in the dark on ice at a pre-determined concentration. The CLDN6 mAbs were directly labeled with Alexa Fluor® 647 NHS Ester (Succinimidyl Ester). After washing, the cells were read by a BD Accuri™ Flow Cytometer C6 to detect antibody-antigen protein binding in channel FL4H. Each antibody was tested at varied concentrations to establish a dose-fluorescence curve. The EC50/IC50 of the antibodies (the concentration of the antibody at which half the max value were calculated based on the values of FL4H (gated in viable singlet cells) using the Very Simple IC50 Tool kit available online which allows biological dose-response data to be plotted and fitted to curve types to give the EC50/IC50. The max value was the lowest concentration of the antibody at which fluorescence maxes out. The antibodies were also screened for their ability to cross-react with other CLDN proteins such as CLDN9, CLDN3, and CLDN4. These values were used to determine each antibody's relative affinity among the set of antibodies tested. Cross-reactivity data were obtained using a similar methodology, but with cells having a different expression profile for CLDN6, CLDN3, CLDN4 and CLDN9.

In test [2] the target is T2, CLDN6 endogenously expressed by human cancer cell lines (ARK2, OVCA429) (human, UniProt P56747 1-220).
T2 construct: Untagged endogenous protein; also called Endogenous CLDN6+
T2 sequence: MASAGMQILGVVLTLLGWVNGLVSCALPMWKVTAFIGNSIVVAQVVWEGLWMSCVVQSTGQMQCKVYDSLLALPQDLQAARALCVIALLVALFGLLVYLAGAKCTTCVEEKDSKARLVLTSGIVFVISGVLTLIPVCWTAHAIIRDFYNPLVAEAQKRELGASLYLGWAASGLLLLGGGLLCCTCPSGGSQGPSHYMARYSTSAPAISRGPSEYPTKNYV
In words: FACS, AF647-labelled mAb, ARK2 cells. On the procedure:
as §1, §2, §3

For test [3], the target named is T2, CLDN6 endogenously expressed by human …. Nature of the test: FACS, AF647-labelled mAb, OVCA429 cells. The method, then:
as §1, §2, §3

Test [4] shares this target. Nature of the test: FACS, 0.3 µg Ab, ARK2 cells. The method, then:
(§4) FACS assays were also carried out to determine relative antigen binding strengths of the humanized antibodies (at either 1.5 μg or 0.3 μg) for binding to CLDN6 as expressed by the indicated cancer cell lines. 2nd Ab only was used as a negative control.

Test [5] has the same target. Nature of the test: FACS, 1.5 µg Ab, ARK2 cells. The method, then:
as §4

Test [6] has as its target T3, mouse CLDN6 fused to GFP, expressed on engineered HEK293T cells (mouse, UniProt Q9Z262 1-219).
T3 construct: whole, on cells; also called HEK293T-CLDN6-mGFP Artificial CLDN6+ (mouse); murine CLDN6; not shown: GFP tag
T3 sequence (looked up): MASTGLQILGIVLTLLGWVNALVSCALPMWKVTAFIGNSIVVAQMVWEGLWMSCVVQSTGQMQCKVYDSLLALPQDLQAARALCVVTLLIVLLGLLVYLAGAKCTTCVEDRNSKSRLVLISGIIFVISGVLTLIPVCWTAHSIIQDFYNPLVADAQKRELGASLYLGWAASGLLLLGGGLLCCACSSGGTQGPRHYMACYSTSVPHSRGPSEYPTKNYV
Nature of the test: FACS, 293T clone with mouse CLDN6, dose not given. On the procedure: Humanized antibodies described in Table 8 were constructed and expressed as essentially described in Example 5. FACS assays were carried out as essentially described in Example 5 to determine relative antigen binding strengths of the humanized antibodies. Two doses (1.5 μg or 0.3 μg) of the humanized antibodies were tested for binding to either human CLDN6 or murine CLDN6 which proteins were expressed by engineered 293T clones.

Test [7] addresses T2, CLDN6 endogenously expressed by human …. In words: FACS, 1.5 µg Ab, OVCA429 cells.
In test [8] the target is T1, human CLDN6 fused to GFP, expressed on …. In words: FACS, 0.3 µg Ab, 293T clone with human CLDN6. Put shortly: (§5)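 Engineered 293T clones expressing human CLDN6 were detached with EDTA and incubated with Alexa Fluor 647 NHS ester-labelled humanized antibody, at 0.3 µg or 1.5 µg, for 30 min on ice in the dark. After washing, the cells were read by flow cytometry on a BD Accuri C6 in channel FL4H. Fluorescence in this direct-binding assay reflects relative antigen binding strength.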

Test [9] shares this target. In words: FACS, 1.5 µg Ab, 293T clone with human CLDN6. The method, boiled down:
as §5

For 3 molecules, EC50 and FACS fluorescence results are on record in patent US20250333501A1 (University of California, published 2025).

B1: AB14 (antibody, V domains shown)
VH: QVQLQQSGPELVRPGVSVKISCKGSGYTFTDYAMHWVKQSHAKSLEWIGVISTYSGNTNYNQKFQDKATMTVDKSSSTAYMALARLTSDDSAIYYCARRGDYSLYAMDYWGQGTSVTVSS
VL: DIVLTQSPASLAVSLGQRATISCKASQSVDYDGDNYVNWYQQKVGQPPKLLISAASNLESGIPARFSGSGSGTDFTLNIHPVEEEDAATYYCQQSNEDPFTFGSGTKLEIK
notes: Labelled with Alexa Fluor 647 NHS ester for FACS
With B1, the EC50 is at least 5 µM in test [1], 1.3 µM in [2] and 1.66 µM in test [3].

B2: AB18 (antibody, V domains shown)
VH: QVQLKQSGPELEKPGASVKISCKASGYSFTGYNMNWVKQSNGKSLEWIGNIDPYYGGSTYNQKFTGKATLTVDKSSSTAYMQLKSLTSEDSAVYYCARERSGYVFSAMDYWGQGTSVTVSS
VL: NIMMTQSPSSLAVSAGEKVTMSCKSSQSVLFSSNQKNYLAWYQQKPGQSPRLLIYWASTRESGVPDRFTGSGSGTDFTLTISNVQAEDLAVYYCHQYLSSRTFGAGTKLELK
notes: as for B1
For B2, the EC50 in [1] was at least 5 µM; in test [2], 1.35 µM; in test [3] it was 2.44 µM.

B3: AB4-chim (antibody, V domains shown)
VH: QVQLQQSGAELARPGASVKMSCKASGYTFTSYTMHWIKQRPGQGQEWIGYINPSSTYTHYIKKFKDKATLTADKSSSTAYMQLRSLTSEDSAVYYCSRGELGGFAYWGQGTLVTVSA
VL: DVVMTQTPLSLPVSLGDQASISCRSSQSLVHSDGNTYLNWYLQKPGQSPKLLIYKVSNRFSGVPDRFSGSGSGTDFTLKIRRVEAEDLGVYFCSQSTHVPYTFGGGTKLEIK
notes: 'chim' is the pre-humanized form (parental variable regions); also called pre-humanized (chimeric) form of AB4
Regarding B3, the FACS fluorescence was determined as 19100 in test [4]; 38400 in [5]; 3640 in [6]; 64800 in test [7]; 176000 in test [8]; 327000 in [9].
